Data published in paper PMC6344894.
Where two headings read alike, the source gives them in different places.

Assays:
YbaK (Escherichia coli) [1] = target: YbaK (Escherichia coli) (UniProt P0AAR3); conditions: cited from earlier work
YbaK (Escherichia coli) [2] = target: YbaK (Escherichia coli) (UniProt P0AAR3); conditions: cited from earlier work; remark: listed apart in the source
[3] = tested on: ProXp-ala (Caulobacter crescentus); experiment: native MS competition; conditions: equimolar three-tRNA mix, 0.33 uM each; 5 uM protein; 1 mM Mg(OAc)2; unmodified transcript; AUC: 50 mM HEPES pH 6.8, 30 mM KCl, 1 mM MgCl2, 20 C; native MS: 200 mM ammonium acetate pH 7.5 (1 mM Mg(OAc)2 stated for ProXp-ala/YbaK competition); scale: ratio of complex tRNAPro:tRNACys:tRNAAla

ProRS (from UniProt P16659)
Kd (YbaK (Escherichia coli) [1]): 550 nM
Kd (YbaK (Escherichia coli) [2]): 45 nM

tRNAAla G35A
binding signal [3]: 1

tRNACys
binding signal [3]: 1

tRNAPro
binding signal [3]: 4
